Data as given in the supplement of paper PMC9876800.

System: peptide library, one residue held at a place counted from the S/T acceptor
Assay: relative phosphorylation of the sub-library (ratio to the mean residue at this position); higher = residue favoured
Conditions: human
Method in brief: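 Relative sub-library phosphorylation is a ratio to the mean residue at the same position. Purified recombinant kinases were incubated under kinase-specific conditions with biotinylated degenerate peptide sub-libraries, each fixing one residue at one position around a central Ser/Thr, using 50 μM peptide and 50 μM ATP spiked with γ-32P-ATP for 90 min. Spots captured on streptavidin membranes were phosphorimaged and quantified by densitometry.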

Sequence of PDK4, construct: Full length (Q16654 whole entry, looked up): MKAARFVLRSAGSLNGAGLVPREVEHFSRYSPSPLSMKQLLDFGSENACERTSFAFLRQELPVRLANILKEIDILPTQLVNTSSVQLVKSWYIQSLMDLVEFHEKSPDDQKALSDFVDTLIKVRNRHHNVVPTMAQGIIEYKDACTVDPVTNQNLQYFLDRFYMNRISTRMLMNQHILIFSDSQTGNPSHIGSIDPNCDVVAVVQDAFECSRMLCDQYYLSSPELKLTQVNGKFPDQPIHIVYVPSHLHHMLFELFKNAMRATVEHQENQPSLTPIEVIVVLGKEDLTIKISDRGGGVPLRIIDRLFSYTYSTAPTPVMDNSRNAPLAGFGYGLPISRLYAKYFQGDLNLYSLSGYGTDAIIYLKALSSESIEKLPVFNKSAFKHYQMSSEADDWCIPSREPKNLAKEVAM

PDK4, construct: Full length (from UniProt Q16654)
relative phosphorylation
Conditions	at +1	at +2	at +3	at +4	at -1	at -2	at -3	at -4	at -5
A fixed	0.674	0.87	1.15	0.987	1.05	0.953	0.939	0.873	1.06
D fixed	0.79	1.21	1.1	1.16	1.09	0.775	0.841	0.861	0.995
E fixed	0.679	1.64	1.06	0.972	0.718	0.715	0.788	0.818	0.876
F fixed	1.34	0.962	1.52	1.07	1.21	1.03	1.65	1.53	1.25
G fixed	0.705	1.22	1.05	1.06	1.29	1.22	1.02	0.992	1.03
H fixed	0.838	0.883	1.09	0.947	1.02	1.23	1.11	0.983	0.996
I fixed	1.2	0.742	1.03	0.802	0.778	0.776	0.912	0.897	0.99
K fixed	0.692	0.745	0.622	0.834	0.847	0.889	0.827	0.86	0.88
L fixed	1.74	0.951	0.993	0.98	0.947	0.97	0.961	0.905	1.05
M fixed	1.48	1.06	1.23	1.02	1.15	1.08	1.07	1.04	1.29
N fixed	0.732	1.05	0.898	1.36	1.1	0.883	0.906	0.964	1.15
P fixed	0.825	0.823	0.93	1.01	0.874	1.09	0.973	0.878	0.723
Q fixed	0.862	1.09	0.818	0.959	0.89	0.964	0.912	0.95	0.791
R fixed	0.853	0.939	0.729	0.968	1.03	1.02	0.913	0.962	0.869
V fixed	0.972	0.791	0.771	0.828	0.783	0.864	0.831	0.827	0.825
W fixed	1.61	1.03	1.01	1.04	1.22	1.55	1.35	1.66	1.21
Y fixed	1.34	0.962	1.52	1.07	1.21	1.03	1.65	1.53	1.25
pThr fixed	0.849	1.01	1.27	1.36	0.587	0.794	0.865	0.973	1.09
pTyr fixed	0.895	1.19	0.99	1	0.7	0.943	1.31	1.83	1.07
